According to the supplement of paper PMC7125110:
± gives the standard error. For part of these data: Fewer inactive variants are shown than the library holds.

B1: glmS ribozyme (parent)
chain: AUAAAAGCGCCAGAACUACAGAAAUGUAGUUGACGAGGAGGAGGUUUAUCGAAUUUUCGGCGGAUGCCUCCAAA

Key:
Settings in all cases: with glucosamine-6-phosphate
[1] = variants of: B1; assay: kcat; higher = faster cleavage; RNA array
How it was run: (§1)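 Glucosamine-6-phosphate (40 μM to 10 mM) in HEPES/KCl/Mg(OAc)2 buffer was flowed over sequenced MiSeq chips, and tiles were imaged over ~14 h. Barcoded ribozyme variants there had been transcribed in situ by E. coli RNA polymerase and were tracked through a hybridised Cy3 probe at 37 °C. One- or two-exponential decay fits to per-tile medians, normalised to baseline and to non-cleaving reference variants, gave kobs. kcat and KM came from weighted Michaelis–Menten fits across concentrations.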

[2] = variants of: B1; assay: KM; higher = weaker cofactor use; RNA array
How it was run: as §1

[3] = variants of: B1; assay: self-cleavage kobs at 40 uM GlcN6P; higher = faster cleavage; RNA array
How it was run: as §1

[4] = variants of: B1; assay: self-cleavage kobs at 160 uM GlcN6P; higher = faster cleavage; RNA array
How it was run: as §1

[5] = variants of: B1; assay: self-cleavage kobs at 640 uM GlcN6P; higher = faster cleavage; RNA array
How it was run: as §1

[6] = variants of: B1; assay: self-cleavage kobs at 2500 uM GlcN6P; higher = faster cleavage; RNA array
How it was run: as §1

[7] = variants of: B1; assay: self-cleavage kobs at 10000 uM GlcN6P; higher = faster cleavage; RNA array
How it was run: as §1

Variant	kcat [1] [s⁻¹]	KM [2] [µM]	self-cleavage kobs at 40 uM GlcN6P [3] [s⁻¹]	self-cleavage kobs at 160 uM GlcN6P [4] [s⁻¹]	self-cleavage kobs at 640 uM GlcN6P [5] [s⁻¹]	self-cleavage kobs at 2500 uM GlcN6P [6] [s⁻¹]	self-cleavage kobs at 10000 uM GlcN6P [7] [s⁻¹]
U30A U55C	0.0088 ± 0.0027	3470 ± 1500	0.000194 ± 3.2e-05	0.000315 ± 5.6e-05	0.00129 ± 0.00024	0.00471 ± 0.0012	0.00647 ± 0.00073
G29C C67A C71U	0.0001 ± 1.5e-05	–	–	–	0.000116 ± 2.2e-05	7.49e-05 ± 1.9e-05	0.000106 ± 1.9e-05
U30A C58U	1.78e-05 ± 3.6e-06	–	–	–	–	–	–
G29U A42G	0.00693 ± 0.0016	1770 ± 660	0.000272 ± 0.00011	0.000486 ± 0.00015	0.00202 ± 0.00037	–	0.00626 ± 0.0011
G29C U47A	0.00173 ± 0.00071	–	4.95e-05 ± 1.1e-05	7.89e-05 ± 1.6e-05	0.000293 ± 3.8e-05	0.000579 ± 8.4e-05	0.00158 ± 0.0002
G29C U47G	0.000341 ± 9.9e-05	–	–	–	7.76e-05 ± 1.8e-05	0.000393 ± 8.4e-05	0.000269 ± 4.6e-05
G29U U56G	0.00364 ± 0.0012	3840 ± 1700	6.41e-05 ± 1.1e-05	0.000127 ± 1.6e-05	0.000648 ± 9.8e-05	0.00118 ± 0.0002	0.00283 ± 0.00035
G29U U54A U65A	0.000347 ± 8.3e-05	–	–	8.02e-05 ± 2.9e-05	0.000149 ± 2.1e-05	0.000241 ± 3.4e-05	0.000456 ± 0.00011
U30A A39U	0.00467 ± 0.0022	–	0.000191 ± 5.4e-05	0.000401 ± 8.1e-05	0.00188 ± 0.00036	0.0022 ± 0.00046	0.00745 ± 0.0016
G29U U31A	0.0048 ± 0.0017	3260 ± 1600	9.58e-05 ± 1.6e-05	0.000159 ± 3.6e-05	0.000947 ± 0.00018	0.0019 ± 0.00044	0.00369 ± 0.00052
G29C G66C	2.22e-05 ± 9.6e-06	–	–	–	–	–	–
U30A U55C G66C	8.18e-05 ± 2.7e-05	–	–	–	–	0.000101 ± 2e-05	6.89e-05 ± 1.1e-05
G29U U54A C67G	8.75e-05 ± 2.6e-05	–	–	5.68e-05 ± 1.4e-05	8.37e-05 ± 1.3e-05	0.000134 ± 2.5e-05	5.17e-05 ± 2e-05
U30A A53C	0.00232 ± 0.00044	3590 ± 950	–	0.000107 ± 2.5e-05	0.000357 ± 6.9e-05	0.000882 ± 0.00014	0.00196 ± 0.00049
G29U G38A	< 1e-05	–	–	< 1e-05	< 1e-05	< 1e-05	–
U30A C67G	0.000166 ± 1.4e-05	1650 ± 330	–	–	5.03e-05 ± 5.9e-06	9.16e-05 ± 8.4e-06	0.00015 ± 1.3e-05

Variant	kcat [1] [s⁻¹]	KM [2] [µM]	self-cleavage kobs at 40 uM GlcN6P [3] [s⁻¹]	self-cleavage kobs at 160 uM GlcN6P [4] [s⁻¹]	self-cleavage kobs at 640 uM GlcN6P [5] [s⁻¹]	self-cleavage kobs at 2500 uM GlcN6P [6] [s⁻¹]	self-cleavage kobs at 10000 uM GlcN6P [7] [s⁻¹]
U30A C67U	0.00166 ± 0.00065	–	5.62e-05 ± 1.2e-05	0.000105 ± 2.1e-05	0.00036 ± 6.4e-05	0.00118 ± 0.00017	0.00106 ± 0.00034
G29C G37A	0.000262 ± 4.4e-05	6200 ± 1700	–	–	–	7.11e-05 ± 1.8e-05	0.000165 ± 3.8e-05
U30A C71A	0.00089 ± 0.00018	603 ± 230	5.08e-05 ± 1.3e-05	–	0.000632 ± 0.0002	0.000946 ± 0.00022	0.00072 ± 0.00016
U30A G40U	0.000556 ± 6.4e-05	2160 ± 580	–	–	0.000117 ± 3e-05	0.000367 ± 9e-05	0.000446 ± 6.3e-05
U30A U47G	0.000918 ± 0.00028	–	7.81e-05 ± 2.4e-05	–	0.000406 ± 8.6e-05	0.000481 ± 0.00024	0.00109 ± 0.00021
G29U A64C	1.56e-05 ± 2.5e-06	–	< 1e-05	–	–	–	–
G29U G37C	1.83e-05 ± 2.2e-06	–	–	–	–	–	–
G29U G66U	0.000182 ± 1.7e-05	1300 ± 360	–	–	5.65e-05 ± 1.1e-05	0.000151 ± 2.6e-05	0.000156 ± 1.6e-05
G29U G66A	0.0034 ± 0.00083	1710 ± 700	8.79e-05 ± 1.5e-05	0.000716 ± 0.0002	0.000732 ± 0.00016	0.00168 ± 0.00038	0.00316 ± 0.00039
G29U C58G	8.52e-05 ± 7.7e-06	752 ± 370	–	–	3.31e-05 ± 1.6e-05	8.3e-05 ± 1.9e-05	7.67e-05 ± 9.9e-06
G29U C58A	0.000289 ± 9.9e-05	–	–	3.39e-05 ± 1.2e-05	5.13e-05 ± 1e-05	0.000103 ± 1e-05	0.000231 ± 3e-05
G29C G32U	0.000823 ± 0.00021	7540 ± 2900	–	–	–	0.000226 ± 6.2e-05	0.000448 ± 0.00016
G29C G32A	0.00108 ± 0.00019	1960 ± 740	3.72e-05 ± 1.5e-05	–	0.000251 ± 8.5e-05	0.000762 ± 0.00038	0.0009 ± 0.00015
G29C U54C	0.00154 ± 0.00063	–	6.42e-05 ± 1.4e-05	0.000153 ± 2.5e-05	0.000301 ± 7.9e-05	0.000773 ± 0.00014	0.0019 ± 0.00032
G29U U47A	0.00313 ± 0.00095	1350 ± 650	9.83e-05 ± 1.2e-05	–	0.000972 ± 0.00015	0.00104 ± 0.00036	0.0033 ± 0.00035
